Measured values reported in US20250025478.

Tests used:
6×His-CYLD = 6×His-CYLD (UniProt Q9NQC7)
GST-SPATA2 = GST-SPATA2 (UniProt Q9UM82)
GST-SPATA2, sequence (Q9UM82 whole entry): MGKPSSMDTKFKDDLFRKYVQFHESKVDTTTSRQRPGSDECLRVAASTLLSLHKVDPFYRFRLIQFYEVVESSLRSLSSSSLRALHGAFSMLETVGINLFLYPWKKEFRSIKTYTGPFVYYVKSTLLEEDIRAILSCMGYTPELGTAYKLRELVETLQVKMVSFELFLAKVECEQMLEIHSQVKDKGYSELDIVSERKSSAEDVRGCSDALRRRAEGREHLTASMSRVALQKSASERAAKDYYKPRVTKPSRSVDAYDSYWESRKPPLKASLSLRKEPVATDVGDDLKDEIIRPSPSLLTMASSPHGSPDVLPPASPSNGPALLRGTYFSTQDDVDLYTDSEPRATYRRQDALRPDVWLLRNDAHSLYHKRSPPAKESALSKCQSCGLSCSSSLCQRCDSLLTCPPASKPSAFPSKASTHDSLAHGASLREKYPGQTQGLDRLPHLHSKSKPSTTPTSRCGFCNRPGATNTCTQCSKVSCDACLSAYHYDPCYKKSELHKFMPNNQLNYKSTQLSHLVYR

6×His-CYLD, sequence (Q9NQC7 whole entry): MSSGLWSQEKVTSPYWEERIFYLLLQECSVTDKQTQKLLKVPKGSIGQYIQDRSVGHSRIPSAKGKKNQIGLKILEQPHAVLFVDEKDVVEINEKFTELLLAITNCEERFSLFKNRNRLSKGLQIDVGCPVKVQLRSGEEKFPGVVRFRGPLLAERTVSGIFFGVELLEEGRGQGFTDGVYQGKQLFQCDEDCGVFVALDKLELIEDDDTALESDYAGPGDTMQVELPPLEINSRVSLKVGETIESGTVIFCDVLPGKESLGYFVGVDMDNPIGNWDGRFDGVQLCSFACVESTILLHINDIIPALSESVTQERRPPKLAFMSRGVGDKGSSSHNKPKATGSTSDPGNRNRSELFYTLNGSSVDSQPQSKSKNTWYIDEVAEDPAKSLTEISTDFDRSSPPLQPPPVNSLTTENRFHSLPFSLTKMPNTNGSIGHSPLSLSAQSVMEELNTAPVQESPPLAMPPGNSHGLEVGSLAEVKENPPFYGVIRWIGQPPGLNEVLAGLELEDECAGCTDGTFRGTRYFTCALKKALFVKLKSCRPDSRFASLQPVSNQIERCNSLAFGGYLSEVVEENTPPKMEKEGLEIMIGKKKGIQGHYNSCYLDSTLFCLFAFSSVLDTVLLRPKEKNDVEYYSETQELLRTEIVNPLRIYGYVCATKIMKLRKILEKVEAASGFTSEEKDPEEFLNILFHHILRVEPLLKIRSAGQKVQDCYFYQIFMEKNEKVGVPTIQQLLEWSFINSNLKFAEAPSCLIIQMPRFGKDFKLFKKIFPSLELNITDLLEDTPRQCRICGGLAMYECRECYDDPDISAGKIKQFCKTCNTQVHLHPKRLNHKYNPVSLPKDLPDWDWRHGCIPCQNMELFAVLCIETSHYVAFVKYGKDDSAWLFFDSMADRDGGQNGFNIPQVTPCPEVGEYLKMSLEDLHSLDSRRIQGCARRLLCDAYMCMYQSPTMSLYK

Substance	in vitro ubiquitylation assay (UBE1, UBE2L3, HA-Ub) (6×His-CYLD)	in vitro ubiquitylation assay (UBE1, UBE2L3, HA-Ub) (GST-SPATA2)	in vitro dephosphorylation of ABL1-phosphorylated RNF213 (3×-FLAG-RNF213)
3×-FLAG-RNF213^H4014A	both proteins showed increased ubiquitylation when the RING mutant RNF213^H4014A (RING-dead) was assayed (compared with WT RNF213)	both proteins showed increased ubiquitylation when the RING mutant RNF213^H4014A (RING-dead) was assayed (compared with WT RNF213)	–
3×-FLAG-RNF213^H4509A	There was no significant ubiquitylation of CYLD or SPATA2 when an RZ mutant ("RZ-dead") form of RNF213 (RNF213^H4509A) was tested	There was no significant ubiquitylation of CYLD or SPATA2 when an RZ mutant ("RZ-dead") form of RNF213 (RNF213^H4509A) was tested	–
3×-FLAG-RNF213^H4014A/H4509A	RING/RZ-dead was unable to ubiquitylate CYLD/SPATA2	RING/RZ-dead was unable to ubiquitylate CYLD/SPATA2	–
recombinant GST-PTP1B	–	–	GST-PTP1B dephosphorylated ABL1-phosphorylated RNF213
3×-FLAG-RNF213	SPATA2 and CYLD, when tested alone or in equimolar concentrations, were ubiquitinated by 3×FLAG-RNF213	SPATA2 and CYLD, when tested alone or in equimolar concentrations, were ubiquitinated by 3×FLAG-RNF213	–
